What was measured:
Mce3R [1] = target: T1, Mce3R (Mycobacterium tuberculosis H37Rv, UniProt P95251 1-406); assay: EMSA; details: protein: recombinant; tags: MBP-His6 N-terminal, removed with TEV; chain copies: 2; label: 5'-Cy3; blunt
T1 sequence: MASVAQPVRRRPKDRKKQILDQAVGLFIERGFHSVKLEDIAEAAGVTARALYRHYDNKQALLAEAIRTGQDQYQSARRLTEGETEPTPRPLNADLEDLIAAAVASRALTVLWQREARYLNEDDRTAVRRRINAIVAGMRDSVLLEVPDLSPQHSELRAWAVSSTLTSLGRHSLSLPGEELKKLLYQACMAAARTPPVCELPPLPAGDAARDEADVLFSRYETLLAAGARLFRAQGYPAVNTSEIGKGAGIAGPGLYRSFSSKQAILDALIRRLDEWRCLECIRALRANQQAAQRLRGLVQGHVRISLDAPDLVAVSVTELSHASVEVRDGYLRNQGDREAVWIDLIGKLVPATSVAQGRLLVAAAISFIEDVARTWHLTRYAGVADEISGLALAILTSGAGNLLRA

Mce3R [2] = target: T1, Mce3R; assay: EMSA; 10 nM DNA, 0-128 nM protein; details: protein: recombinant; tags: MBP-His6 N-terminal, removed with TEV; chain copies: 2; label: 5'-Cy3 (forward strand); blunt
Mce3R [3] = target: T1, Mce3R; assay: EMSA; up to 128 nM Mce3R, 1 ug poly(dI-dC); details: protein: recombinant; tags: MBP-His6 N-terminal, removed with TEV; chain copies: 2; label: 5'-Cy3 (forward strand); blunt
SEC = target: the molecule itself; assay: SEC

B1: Probe C (dsDNA)
DNA 1: TAGCCAATATATGCCAGTTTGCATTGCTATTTACCGATCAGTTGTCCAAGCAATCGCGTATTGGCTATGGACATCAGCGGTTCTGCCGC
DNA 2: GCGGCAGAACCGCTGATGTCCATAGCCAATACGCGATTGCTTGGACAACTGATCGGTAAATAGCAATGCAAACTGGCATATATTGGCTA
Mce3R [1]
  binding result: binds

B2: Probe A* (dsDNA)
DNA 1: CTACAAGTGCTGGAGGTCAAATCCCGCATCAACATAGCCAATATATGCCAGTTTGCATTGCTATTTACCGATCAGTTGTCCAAGCAATCGCGTATTGGCTATGGACATCAGCGGTTCTGCCGC
DNA 2: GCGGCAGAACCGCTGATGTCCATAGCCAATACGCGATTGCTTGGACAACTGATCGGTAAATAGCAATGCAAACTGGCATATATTGGCTATGTTGATGCGGGATTTGACCTCCAGCACTTGTAG
Mce3R [2]
  Kd: 59 ± 10 nM

B3: Probe A' (dsDNA)
DNA 1: CCAGTGCGACCTAACCAAGGACCTACAGATTCTGTCCGTGAGAGAATCGTGTTGGCCTCAGAAGACGGTCGCAAGTTCTCTTTATGACCTGCTAAACTTGAGCCTATATTAGTTATCGCACCT
DNA 2: AGGTGCGATAACTAATATAGGCTCAAGTTTAGCAGGTCATAAAGAGAACTTGCGACCGTCTTCTGAGGCCAACACGATTCTCTCACGGACAGAATCTGTAGGTCCTTGGTTAGGTCGCACTGG
Mce3R [3]
  binding result: no binding

B4: Probe A (dsDNA)
DNA 1: GCCCCGCGCTATAGGATACTAGCAAGATACATCATAGCCAATATATGCCAGTTTGCATTGCTATTTACCGATCAGTTGTCCAAGCAATCGCGTATTGGCTATGGACATCAGCGGTTCTGCCGC
DNA 2: GCGGCAGAACCGCTGATGTCCATAGCCAATACGCGATTGCTTGGACAACTGATCGGTAAATAGCAATGCAAACTGGCATATATTGGCTATGATGTATCTTGCTAGTATCCTATAGCGCGGGGC
Mce3R [2]
  Kd: 2.4 ± 0.7 nM

B5: Mce3R (Rv1963c), full-length TetR-like repressor of Mycobacterium tuberculosis (natural protein)
chain: MASVAQPVRRRPKDRKKQILDQAVGLFIERGFHSVKLEDIAEAAGVTARALYRHYDNKQALLAEAIRTGQDQYQSARRLTEGETEPTPRPLNADLEDLIAAAVASRALTVLWQREARYLNEDDRTAVRRRINAIVAGMRDSVLLEVPDLSPQHSELRAWAVSSTLTSLGRHSLSLPGEELKKLLYQACMAAARTPPVCELPPLPAGDAARDEADVLFSRYETLLAAGARLFRAQGYPAVNTSEIGKGAGIAGPGLYRSFSSKQAILDALIRRLDEWRCLECIRALRANQQAAQRLRGLVQGHVRISLDAPDLVAVSVTELSHASVEVRDGYLRNQGDREAVWIDLIGKLVPATSVAQGRLLVAAAISFIEDVARTWHLTRYAGVADEISGLALAILTSGAGNLLRA
notes: Mce3R (Rv1963c), Mycobacterium tuberculosis H37Rv, full length; calculated MW 44.3 kDa; also called M1M2 TFR; wild-type Mce3R; not shown: MBP, N-terminal, cleaved; His6, N-terminal, cleaved
SEC
  stoichiometry N: 2

From publication PMC11667970, “Mycobacterium tuberculosis Mce3R TetR-like Repressor Forms an Asymmetric Four-Helix Bundle and Binds a Nonpalindrome Sequence†” (ACS Chemical Biology, 2024)
